Residue numbers refer to the chain shown, from its start. Names may count otherwise. Read-outs that look alike come from different tables or passages of the source.

Holding throughout (assay): SEC
For orientation: In gel filtration, larger molecules generally elute earlier.

Data set [1] concerns the molecule itself.
Data set [2] deals with the molecule itself. The source holds these as a separate data set.
Data set [3] deals with the molecule itself. The source holds these as a separate data set.

B1: G80A/H81A (K3A2H) horse myoglobin (natural protein)
chain: GLSDGEWQQVLNVWGKVEADIAGHGQEVLIRLFTGHPETLEKFDKFKHLKTEAEMKASEDLKKHGTVVLTALGGILKKKAAHEAELKPLAQSHATKHKIPIKYLEFISDAIIHVLHSKHPGDFGADAQGAMTKALELFRNDIAAKYKELGFQG
For B1, in “SEC [1]”, the “dimer-to-monomer ratio after heating” value came to 92%. In the data set “SEC [2]”, this protein yielded a Ka of 920000 M⁻¹ and a dH of -30.8 ± 1.1 kcal/mol.

B2: G80A/H81A/L137D (K3A2H-L137D) horse myoglobin (natural protein)
chain: B1 chain with L137D
With B2, in the data set “SEC [1]”, the “dimer-to-monomer ratio after heating” value worked out at 98%. In the data set “SEC [3]”, this protein had a Ka of 2.3e+07 M⁻¹ and a dH of -100 ± 4 kcal/mol.

B3: G80A/H81A/L137E (K3A2H-L137E) horse myoglobin (natural protein)
chain: B1 chain with L137E
Turning to B3, the “dimer-to-monomer ratio after heating” value in the data set “SEC [1]” was 97%. In the data set “SEC [3]”, this protein returned a Ka of 9.4e+06 M⁻¹ and a dH of -63.2 ± 5.1 kcal/mol.

The values above are taken from paper PMC9043842 (RSC Advances, 2021).
